Test results published in US20260209362A1 (VIB VZW, published 2026).
Positions count from the first letter of the chain named.

T1: human IL-12Rβ2 expressed on cells (human, UniProt Q99665 24-862)
T1 sequence: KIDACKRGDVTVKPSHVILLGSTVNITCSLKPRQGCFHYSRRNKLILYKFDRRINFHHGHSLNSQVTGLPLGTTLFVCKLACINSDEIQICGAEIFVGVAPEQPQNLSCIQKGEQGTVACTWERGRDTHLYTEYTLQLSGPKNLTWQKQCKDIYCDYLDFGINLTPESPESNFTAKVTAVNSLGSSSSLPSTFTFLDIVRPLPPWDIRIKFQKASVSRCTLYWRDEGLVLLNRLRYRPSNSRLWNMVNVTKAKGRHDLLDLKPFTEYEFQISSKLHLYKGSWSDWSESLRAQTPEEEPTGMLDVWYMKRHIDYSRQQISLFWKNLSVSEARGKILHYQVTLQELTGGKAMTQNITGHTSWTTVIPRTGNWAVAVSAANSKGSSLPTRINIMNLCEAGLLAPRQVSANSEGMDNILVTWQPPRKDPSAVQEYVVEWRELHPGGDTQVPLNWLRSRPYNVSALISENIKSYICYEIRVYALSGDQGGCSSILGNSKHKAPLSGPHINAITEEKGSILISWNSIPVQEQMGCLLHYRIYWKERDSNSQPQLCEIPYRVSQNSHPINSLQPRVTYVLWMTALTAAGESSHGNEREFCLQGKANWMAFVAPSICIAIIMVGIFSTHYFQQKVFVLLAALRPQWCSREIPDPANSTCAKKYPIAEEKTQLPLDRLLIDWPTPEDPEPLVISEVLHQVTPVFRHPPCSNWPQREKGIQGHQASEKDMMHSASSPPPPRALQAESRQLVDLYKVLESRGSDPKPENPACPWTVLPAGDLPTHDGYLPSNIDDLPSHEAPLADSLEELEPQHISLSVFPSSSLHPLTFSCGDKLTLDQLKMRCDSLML

B1: 20415-FcDE (Fc fusion)
VHH-Fc chain: QVQLQESGGGLVQPGGSLRLSCTASGSIVSIYNMDWYRQAPGNEREWVASITSSGDPYYDGSAKGRFTISRDNAKMTVYLQMNSLKPEDTAVYYCKVPTEKGNYWGQGTQVTVSSAPELLGGPDVFLFPPKPKDTLMISRTPEVTCVVVDVSHEDPEVKFNWYVDGVEVHNAKTKPREEQYNSTYRVVSVLTVLHQDWLNGKEYKCKVSNKALPAPEEKTISKAKGQPREPQVYTLPPSRDELTKNQVSLTCLVKGFYPSDIAVEWESNGQPENNYKTTPPVLDSDGSFFLYSKLTVDKSRWQQGNVFSCSVMHEALHNHYTQKSLSLSPGK
B2: 20422-FcDE (Fc fusion)
VHH-Fc chain: B1 VHH-Fc chain with K86E, Y94F
B3: 20401-FcDE (Fc fusion)
VHH-Fc chain: QVQLQESGGGLVQAGESLTLSCIASGVIKDYAMGWFRQAPGKEREFVAAISWSGVSIYYADSVKGRFTISRDNAKNTVYLQMNSLEPEDTAVYYCAGTEGAYTVAGGSTFGYDMDYWGKGTQVTVSSAPELLGGPDVFLFPPKPKDTLMISRTPEVTCVVVDVSHEDPEVKFNWYVDGVEVHNAKTKPREEQYNSTYRVVSVLTVLHQDWLNGKEYKCKVSNKALPAPEEKTISKAKGQPREPQVYTLPPSRDELTKNQVSLTCLVKGFYPSDIAVEWESNGQPENNYKTTPPVLDSDGSFFLYSKLTVDKSRWQQGNVFSCSVMHEALHNHYTQKSLSLSPGK
B4: anti-IL-12Rβ2-VHH-Fc clone 20432 with a wildtype IgG1 Fc sequence (Fc fusion)
chain: QVQLQESGGGLVQPGGSLRLSCAASGFTFSTSGMHWFRQAPGKGLEWVSSIGATVDNSYYASSVKGRFTISRDNAKNTLYLLMNSLKSEDTAVYYCSKDPTGSSRGQGTQVTVSSAPELLGGPSVFLFPPKPKDTLMISRTPEVTCVVVDVSHEDPEVKFNWYVDGVEVHNAKTKPREEQYNSTYRVVSVLTVLHQDWLNGKEYKCKVSNKALPAPIEKTISKAKGQPREPQVYTLPPSRDELTKNQVSLTCLVKGFYPSDIAVEWESNGQPENNYKTTPPVLDSDGSFFLYSKLTVDKSRWQQGNVFSCSVMHEALHNHYTQKSLSLSPGK
B5: 20399-FcDE (Fc fusion)
VHH-Fc chain: QVQLQESGGGLVQPGGSLRLSCAASGSILRINLMGWYRQVPGKQRELVAEMSTGGSTTYVDSVEGRFTISRDNAKNTVYLQMNSLKPEDTAVYYCNAKAWQLGRLENDDWGQGTQVTVSSAPELLGGPDVFLFPPKPKDTLMISRTPEVTCVVVDVSHEDPEVKFNWYVDGVEVHNAKTKPREEQYNSTYRVVSVLTVLHQDWLNGKEYKCKVSNKALPAPEEKTISKAKGQPREPQVYTLPPSRDELTKNQVSLTCLVKGFYPSDIAVEWESNGQPENNYKTTPPVLDSDGSFFLYSKLTVDKSRWQQGNVFSCSVMHEALHNHYTQKSLSLSPGK
B6: anti-IL-12Rβ2-VHH-FcDE clone 20438 (Fc fusion)
chain: QVQLQESGGGLVQPGGSLRLSCTASGFAFSTYWMYWIRQSPEKGFEWVSVVNTGGDITYYADSVKGRFTISRDNAKNTLYLQMNSLKPEDTALYYCARDRTTMSYTRTYYRGGQGTQVTVSSAPELLGGPDVFLFPPKPKDTLMISRTPEVTCVVVDVSHEDPEVKFNWYVDGVEVHNAKTKPREEQYNSTYRVVSVLTVLHQDWLNGKEYKCKVSNKALPAPEEKTISKAKGQPREPQVYTLPPSRDELTKNQVSLTCLVKGFYPSDIAVEWESNGQPENNYKTTPPVLDSDGSFFLYSKLTVDKSRWQQGNVFSCSVMHEALHNHYTQKSLSLSPGK
B7: 20429-FcDE (Fc fusion)
VHH-Fc chain: QVQLQESGGGLVQPGGSLRLSCKASGFTFSTYAMSWVRQAPGKGLEWVSAVNSGGLSTDYADSVEGRFTISRDDAKNMLFLQMNSLKPEDTARYYCAKYEDCSDYMCHRDRAGYWGQGTQVTVSSAPELLGGPDVFLFPPKPKDTLMISRTPEVTCVVVDVSHEDPEVKFNWYVDGVEVHNAKTKPREEQYNSTYRVVSVLTVLHQDWLNGKEYKCKVSNKALPAPEEKTISKAKGQPREPQVYTLPPSRDELTKNQVSLTCLVKGFYPSDIAVEWESNGQPENNYKTTPPVLDSDGSFFLYSKLTVDKSRWQQGNVFSCSVMHEALHNHYTQKSLSLSPGK
B8: 20421-FcDE (Fc fusion)
VHH-Fc chain: QVQLQESGGGLVQPGGSLRLSCAASGFTFSTYAMSWVRQAPGKGLEWVSAVNSGGLSTDYADSVEGRFTISRDDAKNMLFLQMNRLKPEDTARYYCAKYEDCSDYVCDRAGYWGQGTQVTVSSAPELLGGPDVFLFPPKPKDTLMISRTPEVTCVVVDVSHEDPEVKFNWYVDGVEVHNAKTKPREEQYNSTYRVVSVLTVLHQDWLNGKEYKCKVSNKALPAPEEKTISKAKGQPREPQVYTLPPSRDELTKNQVSLTCLVKGFYPSDIAVEWESNGQPENNYKTTPPVLDSDGSFFLYSKLTVDKSRWQQGNVFSCSVMHEALHNHYTQKSLSLSPGK
B9: anti-IL-12Rβ2-VHH-FcDE clone 20407 (Fc fusion)
chain: QVQLQESGGGLVQPGGSLRLTCVASGFPFSTHAMSWVRQPPGKGREWISAINSGGDSTDYADSVMGRFTISRDNAKNTVYLQMNSLKSEDTAAYYCAKYEDCSDYDCSSRASWGQGTQVTVSSAPELLGGPDVFLFPPKPKDTLMISRTPEVTCVVVDVSHEDPEVKFNWYVDGVEVHNAKTKPREEQYNSTYRVVSVLTVLHQDWLNGKEYKCKVSNKALPAPEEKTISKAKGQPREPQVYTLPPSRDELTKNQVSLTCLVKGFYPSDIAVEWESNGQPENNYKTTPPVLDSDGSFFLYSKLTVDKSRWQQGNVFSCSVMHEALHNHYTQKSLSLSPGK
B10: 20400-FcDE (Fc fusion)
VHH-Fc chain: QVQLQESGGGLVQPGGSLRLSCAASGRTINAYIMGWFRQAPGKEREFVAAVSGSGGSTYYADSVKGRFTISRDNAKNTVNLQMDNLRSEDTDVYYCAATYESVYLQNPGQYDYWGQGTQVTVSSAPELLGGPDVFLFPPKPKDTLMISRTPEVTCVVVDVSHEDPEVKFNWYVDGVEVHNAKTKPREEQYNSTYRVVSVLTVLHQDWLNGKEYKCKVSNKALPAPEEKTISKAKGQPREPQVYTLPPSRDELTKNQVSLTCLVKGFYPSDIAVEWESNGQPENNYKTTPPVLDSDGSFFLYSKLTVDKSRWQQGNVFSCSVMHEALHNHYTQKSLSLSPGK

Target: T1, human IL-12Rβ2 expressed on cells
Assay: cell-based or functional assay

Row | % Specific Cell Lysis at 0.00125 ug/mL | % Specific Cell Lysis at 0.025 ug/mL | % Specific Cell Lysis at 0.5 ug/mL | % Specific Cell Lysis at 10 ug/mL | Binder
1 | 52.8% | 61.1% | 68.8% | 77.9% | B1
2 | – | – | 65.8% | 67.3% | B2
3 | 48% | 47.5% | – | 64.9% | B3
4 | – | 54.3% | – | – | B4
5 | 61% | 63.1% | 67.1% | 72.4% | B5
6 | 49.5% | – | 63.4% | 66.9% | B6
7 | 59% | – | 67.7% | 67.3% | B7
8 | 61.3% | 65.9% | 67.7% | 69% | B8
9 | 63.3% | 66.5% | 71.7% | 66.2% | B9
10 | 45.4% | 47.6% | – | – | B10
